In the supplement of paper PMC11865577:

test system: TO-3-N3 (biotin conjugate); experiment: pull-down binding Z-score (relative to library population); higher = stronger binding; details: RNA library: Library-2
How it was run: (§1)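 Heat-folded RNA library (1 μg, Cy5 or Cy3 end label, phosphate/NaCl/KCl buffer) was captured for 60 min at 25 °C on streptavidin beads displaying 100 pmol of biotin-conjugated small molecule, then washed three times. The bound fraction, eluted in hot SDS, was hybridised to a DNA barcode microarray at 55.5 °C for 20 h. Z-scores for binding were taken against the library mean and standard deviation after beads-only subtraction and trimmed averaging of replicate barcoded probes.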

Sequence	pull-down binding Z-score
UAGGUGUUUUAAUGUCUAAUUUAGGCAUGCCUUCUUACUGUACUGGUUACAGAGAAGGCUAUUUGAACUCUA	-0.861
UAGGUGUUUUAAUGUCUAAUUUAGGCAUGCCUUCUUACUGUACUGGUUACAGAGAAGGCUAUUUGAACUCUACUAAUGUCACUAUUGCAACCUA	-0.221
UAGGUUUUUCUACAGGUGUUAACCUA [SHAPE_invitro_SARS-CoV-2_Motif_336]	-0.603
UAGUACAACAGGAGUCACCUUUUGUUAUGAUGUCAGCACCACCUGCUCAGUAUGAACUUAAGCAUGGUACAUUUACUUGUGCUA	-0.521
UAGUACAUUUAUUAGUGAUGAAGUUGCGAGAGACUUGUCACUACAGUUUAAAAGACCAAUAAAUCCUACUG [SHAPE_invivo_SARS-CoV-2_Multi_21_ComplexLevel_1]	0.561
UAGUAGCUGGUGGUAUUGUAGCUAUCGUAGUAACAUGCCUUGCCUACUA [DMSMaPseq_invitro_SARS-CoV-2_Motif_172]	-0.611
UAGUCCUGUUGCACUACGACAGAUGUCUUGUGCUGCCGGUACUA [DMSMaPseq_invitro_SARS-CoV-2_Motif_226]	-0.727
UAGUGAUGAAGUUGCGAGAGACUUGUCACUA	-0.736
UAGUGCAAAGAAUAGAGCUCGCACCGUAGCUGGUGUCUCUAUCUGUAGUACUA	-0.167
UAGUGCUAUGCAGACAAUGCUUUUCACUA	-0.863
UAGUGUUACCACAGAAAUUCUACCAGUGUCUAUGACCAAGACAUCAGUAGAUUGUACAAUGUACAUUUGUGGUGAUUCAACUG [DMSMaPseq_invitro_SARS-CoV-2_Multi_72_ComplexLevel_1]	0.214
UAGUUACACGGUGUUUAAACCGUGUUUGUACUA [SHAPE_invivo_SARS-CoV-2_Motif_139]	-0.83
UAGUUUUAAGGAAUUA	-0.826
UAUAAAGUUUAUUAUGGUAAUGCUUUAGAUCAAGCCAUUUCCAUGUGGGCUCUUAUA	-0.704
UAUAACAAUACUAGAUGGAAUUUCACAGUAUUCACUGAGACUCAUUGAUGCUAUGAUGUUCACAUCUGAUUUGGCUACUAACAAUCUAGUUGUA	-0.682
UAUAAUAUGAGAGUUAUA	-0.11
UAUAUGCCUUAUUUCUUUACUUUAUUGCUACAAUUGUGUACUUUUACUAGAAGUACAAAUUCUAGAAUUAAAGCAUCUA [DMSMaPseq_invitro_SARS-CoV-2_Motif_128]	-0.237
UAUCCAAACGCAAGCUUCGAUAAUUUUAAGUUUGUAUGUGAUA [DMSMaPseq_invitro_SARS-CoV-2_Motif_115]	0.127
UAUGAGGUUUAGAAGAGCUUUUGGUGAAUACAGUCAUGUAGUUGCCUUUAAUACUUUACUAUUCCUUAUG	-0.502
UAUGUCUGAAGCAAAAUGUUGGACUGAGACUGACCUUACUAAAGGACCUCAUGAAUUUUGCUCUCAACAUA	0.0274
UAUUACAGAUCUUUACCAGGAGUUUUCUGUGGUG	-0.624
UAUUAUUGCUAUGUCUGCUUUUGCAAUGAUG	-1.09
UAUUGAAAUCAAUA	-0.553
UAUUUCAUAACAGAUGCGCAAACAGGUUCAUCUAAGUGUGUGUGUUCUGUUAUUGAUUUA	-1.06
UAUUUGCCUAUAGAUA	0.0252
UCAAAAAGAAAUUGA [SHAPE_invivo_SARS-CoV-2_Motif_472]	-0.145
UCAAGACUAUUCAACCAAGGGUUGAAAAGAAAAAGCUUGA [SHAPE_invivo_SARS-CoV-2_Motif_22]	-0.217
UCAAUUAUUAUAAGAAAGUUGA	0.154

test system: TO-3-N3-2 (biotin conjugate); experiment: as above; details: RNA library: Library-2
How it was run: as §1

Sequence	pull-down binding Z-score
UAGGUGUUUUAAUGUCUAAUUUAGGCAUGCCUUCUUACUGUACUGGUUACAGAGAAGGCUAUUUGAACUCUA	-0.358
UAGGUGUUUUAAUGUCUAAUUUAGGCAUGCCUUCUUACUGUACUGGUUACAGAGAAGGCUAUUUGAACUCUACUAAUGUCACUAUUGCAACCUA	0.0583
UAGGUUUUUCUACAGGUGUUAACCUA [SHAPE_invitro_SARS-CoV-2_Motif_336]	-0.426
UAGUACAACAGGAGUCACCUUUUGUUAUGAUGUCAGCACCACCUGCUCAGUAUGAACUUAAGCAUGGUACAUUUACUUGUGCUA	-0.518
UAGUACAUUUAUUAGUGAUGAAGUUGCGAGAGACUUGUCACUACAGUUUAAAAGACCAAUAAAUCCUACUG [SHAPE_invivo_SARS-CoV-2_Multi_21_ComplexLevel_1]	0.312
UAGUAGCUGGUGGUAUUGUAGCUAUCGUAGUAACAUGCCUUGCCUACUA [DMSMaPseq_invitro_SARS-CoV-2_Motif_172]	-0.39
UAGUCCUGUUGCACUACGACAGAUGUCUUGUGCUGCCGGUACUA [DMSMaPseq_invitro_SARS-CoV-2_Motif_226]	-0.381
UAGUGAUGAAGUUGCGAGAGACUUGUCACUA	-0.441
UAGUGCAAAGAAUAGAGCUCGCACCGUAGCUGGUGUCUCUAUCUGUAGUACUA	0.188
UAGUGCUAUGCAGACAAUGCUUUUCACUA	-0.341
UAGUGUUACCACAGAAAUUCUACCAGUGUCUAUGACCAAGACAUCAGUAGAUUGUACAAUGUACAUUUGUGGUGAUUCAACUG [DMSMaPseq_invitro_SARS-CoV-2_Multi_72_ComplexLevel_1]	0.267
UAGUUACACGGUGUUUAAACCGUGUUUGUACUA [SHAPE_invivo_SARS-CoV-2_Motif_139]	-0.496
UAGUUUUAAGGAAUUA	-0.519
UAUAAAGUUUAUUAUGGUAAUGCUUUAGAUCAAGCCAUUUCCAUGUGGGCUCUUAUA	-0.133
UAUAACAAUACUAGAUGGAAUUUCACAGUAUUCACUGAGACUCAUUGAUGCUAUGAUGUUCACAUCUGAUUUGGCUACUAACAAUCUAGUUGUA	-0.178
UAUAAUAUGAGAGUUAUA	-0.355
UAUAUGCCUUAUUUCUUUACUUUAUUGCUACAAUUGUGUACUUUUACUAGAAGUACAAAUUCUAGAAUUAAAGCAUCUA [DMSMaPseq_invitro_SARS-CoV-2_Motif_128]	0.0402
UAUCCAAACGCAAGCUUCGAUAAUUUUAAGUUUGUAUGUGAUA [DMSMaPseq_invitro_SARS-CoV-2_Motif_115]	0.145
UAUGAGGUUUAGAAGAGCUUUUGGUGAAUACAGUCAUGUAGUUGCCUUUAAUACUUUACUAUUCCUUAUG	-0.231
UAUGUCUGAAGCAAAAUGUUGGACUGAGACUGACCUUACUAAAGGACCUCAUGAAUUUUGCUCUCAACAUA	-0.402
UAUUACAGAUCUUUACCAGGAGUUUUCUGUGGUG	-0.388
UAUUAUUGCUAUGUCUGCUUUUGCAAUGAUG	-0.373
UAUUGAAAUCAAUA	-0.77
UAUUUCAUAACAGAUGCGCAAACAGGUUCAUCUAAGUGUGUGUGUUCUGUUAUUGAUUUA	-0.188
UAUUUGCCUAUAGAUA	-0.192
UCAAAAAGAAAUUGA [SHAPE_invivo_SARS-CoV-2_Motif_472]	0.153
UCAAGACUAUUCAACCAAGGGUUGAAAAGAAAAAGCUUGA [SHAPE_invivo_SARS-CoV-2_Motif_22]	-0.14
UCAAUUAUUAUAAGAAAGUUGA	-0.0592
